Substitutions are numbered along the chain they refer to.
Tests used:
[1] = molecular target: T1, Mouse EGFR (recombinant, soluble monomeric) (mouse, UniProt Q01279 25-647); experiment: SPR (Biacore T200), antibody captured on anti-human IgG, soluble monomeric antigen as analyte, 25 C
T1 construct: also called murine EGFR
Protocol: (§1) Mouse anti-human IgG was immobilized on a CM4 sensor chip with a final surface density of ˜2000 resonance units (RUs). A reference flow cell surface was also prepared on this sensor chip using identical immobilization protocol. Test and control article antibodies were prepared at 5-20 nM in instrument buffer (HBS-EP buffer; 0.01M HEPES, pH 7.4, 0.15M NaCl, 3 mM EDTA, and 0.005% P-20), along with 3-fold serial dilutions of purified EGFR (0.27-200 nM human, 0.4-900 nM cyno, and 4-1000 nM murine) or cMET proteins (0.27 to 66 nM human and 0.27-22 nM cyno) in instrument buffer. A sequential approach was utilized for kinetic measurements. Antibodies were first injected over the capture surface, at a flow rate of 10 μL/minute. Once the binding of the captured antibody stabilized, a single concentration of the analyte was injected over both capture and reference surfaces, at a flow rate of 75 μL/minute. The resulting binding response curves yielded the association phase data. Following the injection of analyte, the flow was then switched back to instrument buffer for 15 minutes to permit the collection of dissociation phase data, followed by a 1-minute pulse of 10 mM glycine, pH 1.5, to regenerate the antibody-captured surface on the chip. Binding responses against test and control article antibodies were recorded from duplicate injections of each concentration of analyte. In addition, several buffer injections were interspersed throughout the injection series. Select buffer injections were used along with the reference cell responses to correct the raw data sets for injection artifacts and/or nonspecific binding interactions, commonly referred to as “double referencing”. Corrected binding data were globally fit to a 1:1 binding model (Biacore T200 Evaluation software 2.0, GE Healthcare, Pittsburgh, PA).
(§2) Kinetic measurements to soluble monomeric forms of EGFR and cMET were performed using a BIACore instrument.

[2] = molecular target: T2, Human EGFR (recombinant, soluble monomeric) (human, UniProt P00533 25-645); experiment: as above
T2 construct: also called EGFR antigen; recombinant human EGFR
Protocol: as §1, §2

[3] = molecular target: T3, Cynomolgus monkey cMET (recombinant, soluble monomeric) (cynomolgus monkey, UniProt A0M8R7 25-932 (Papio anubis entry)); experiment: as above
T3 construct: also called cyno c-Met
T3 sequence (A0M8R7 25-932 S170N/I621T): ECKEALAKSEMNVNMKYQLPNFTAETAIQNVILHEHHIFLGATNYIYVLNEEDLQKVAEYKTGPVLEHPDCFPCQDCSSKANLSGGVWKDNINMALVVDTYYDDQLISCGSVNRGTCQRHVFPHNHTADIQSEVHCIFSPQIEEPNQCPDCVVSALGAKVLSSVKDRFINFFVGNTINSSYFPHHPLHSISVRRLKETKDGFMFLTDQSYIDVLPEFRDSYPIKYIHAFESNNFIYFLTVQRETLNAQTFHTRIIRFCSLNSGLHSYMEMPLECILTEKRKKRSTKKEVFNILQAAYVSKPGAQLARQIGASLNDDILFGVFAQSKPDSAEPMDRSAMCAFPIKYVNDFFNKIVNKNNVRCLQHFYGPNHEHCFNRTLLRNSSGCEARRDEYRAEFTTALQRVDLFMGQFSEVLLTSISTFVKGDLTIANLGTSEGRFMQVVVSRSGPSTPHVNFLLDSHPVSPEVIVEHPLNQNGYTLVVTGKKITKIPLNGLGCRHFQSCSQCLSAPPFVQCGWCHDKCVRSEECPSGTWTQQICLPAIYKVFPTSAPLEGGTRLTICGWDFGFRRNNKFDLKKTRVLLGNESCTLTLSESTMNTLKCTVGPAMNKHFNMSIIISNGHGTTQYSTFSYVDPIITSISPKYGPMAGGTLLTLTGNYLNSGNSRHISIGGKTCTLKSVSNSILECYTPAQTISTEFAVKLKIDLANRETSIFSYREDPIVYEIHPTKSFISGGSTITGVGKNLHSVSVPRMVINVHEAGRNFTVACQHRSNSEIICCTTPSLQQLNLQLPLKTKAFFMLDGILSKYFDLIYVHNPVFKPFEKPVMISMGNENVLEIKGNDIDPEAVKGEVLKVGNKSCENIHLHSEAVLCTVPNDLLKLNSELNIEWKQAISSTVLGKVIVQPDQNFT
Protocol: as §1, §2

[4] = molecular target: T4, Human cMET (recombinant, soluble monomeric) (human, UniProt P08581 25-932); experiment: as above
T4 construct: also called His-tagged cMET antigen
T4 sequence (P08581 25-932): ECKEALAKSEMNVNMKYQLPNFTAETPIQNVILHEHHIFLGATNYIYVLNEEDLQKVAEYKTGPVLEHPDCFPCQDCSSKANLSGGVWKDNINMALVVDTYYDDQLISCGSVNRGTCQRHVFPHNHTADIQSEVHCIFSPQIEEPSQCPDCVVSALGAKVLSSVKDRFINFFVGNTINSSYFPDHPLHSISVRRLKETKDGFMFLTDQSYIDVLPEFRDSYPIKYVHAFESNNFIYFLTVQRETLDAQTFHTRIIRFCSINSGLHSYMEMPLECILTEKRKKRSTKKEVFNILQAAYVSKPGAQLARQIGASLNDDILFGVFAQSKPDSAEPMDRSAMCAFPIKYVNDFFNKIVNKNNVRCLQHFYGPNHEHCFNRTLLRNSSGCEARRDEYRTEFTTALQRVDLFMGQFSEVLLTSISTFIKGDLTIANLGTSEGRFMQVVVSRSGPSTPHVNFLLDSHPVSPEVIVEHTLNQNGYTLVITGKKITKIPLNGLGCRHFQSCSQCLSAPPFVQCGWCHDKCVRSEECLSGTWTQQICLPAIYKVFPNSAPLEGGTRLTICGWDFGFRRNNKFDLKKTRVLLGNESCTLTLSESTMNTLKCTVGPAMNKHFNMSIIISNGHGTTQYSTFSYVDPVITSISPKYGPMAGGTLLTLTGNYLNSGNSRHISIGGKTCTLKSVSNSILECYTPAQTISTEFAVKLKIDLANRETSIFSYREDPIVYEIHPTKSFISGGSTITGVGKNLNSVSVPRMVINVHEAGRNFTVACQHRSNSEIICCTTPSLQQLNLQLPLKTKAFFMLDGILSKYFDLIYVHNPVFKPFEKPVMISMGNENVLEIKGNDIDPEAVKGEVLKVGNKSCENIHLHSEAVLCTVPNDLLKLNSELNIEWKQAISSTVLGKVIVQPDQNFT
Protocol: as §1, §2

[5] = molecular target: T5, Cynomolgus monkey EGFR (recombinant, soluble monomeric) (cynomolgus monkey, UniProt P55245 25-645 (rhesus entry)); experiment: as above
T5 construct: also called cyno EGFR
Protocol: as §1, §2

HER3 = molecular target: T6, HER3 (Homo sapiens (Human), UniProt P21860 20-643); experiment: ELISA, antigen coated at 1 ug/mL, anti-human Fab-HRP detection, A450
T6 construct: also called EGFR HER family protein HER3

Mouse cMET (recombinant) = Mouse cMET (recombinant) (mouse, UniProt P16056 25-931, limits assumed); experiment: as above
Chain of Mouse cMET (recombinant) (P16056 25-931 limits assumed): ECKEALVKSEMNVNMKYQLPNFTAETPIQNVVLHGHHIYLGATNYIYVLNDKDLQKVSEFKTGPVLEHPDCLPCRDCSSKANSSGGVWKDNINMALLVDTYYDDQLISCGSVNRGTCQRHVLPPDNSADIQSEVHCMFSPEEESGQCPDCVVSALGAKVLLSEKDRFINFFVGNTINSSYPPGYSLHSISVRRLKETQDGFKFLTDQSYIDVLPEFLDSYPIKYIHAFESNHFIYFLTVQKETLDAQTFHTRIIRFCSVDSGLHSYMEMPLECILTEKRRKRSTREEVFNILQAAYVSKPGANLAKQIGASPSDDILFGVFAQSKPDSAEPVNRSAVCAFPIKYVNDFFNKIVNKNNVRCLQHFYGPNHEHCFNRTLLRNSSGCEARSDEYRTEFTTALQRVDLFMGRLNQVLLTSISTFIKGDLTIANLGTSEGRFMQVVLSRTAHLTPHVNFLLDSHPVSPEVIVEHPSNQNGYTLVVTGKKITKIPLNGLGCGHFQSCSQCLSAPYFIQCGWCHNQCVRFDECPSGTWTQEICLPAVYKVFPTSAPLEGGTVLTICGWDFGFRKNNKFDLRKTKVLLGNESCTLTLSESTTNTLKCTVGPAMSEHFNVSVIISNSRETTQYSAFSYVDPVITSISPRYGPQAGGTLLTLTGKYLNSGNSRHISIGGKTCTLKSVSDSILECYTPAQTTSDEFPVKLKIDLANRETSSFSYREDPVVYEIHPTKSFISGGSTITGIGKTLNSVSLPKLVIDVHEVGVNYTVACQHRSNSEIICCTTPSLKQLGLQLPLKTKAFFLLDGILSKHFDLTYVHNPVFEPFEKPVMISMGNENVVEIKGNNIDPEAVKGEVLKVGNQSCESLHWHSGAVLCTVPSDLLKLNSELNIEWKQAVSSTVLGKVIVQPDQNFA
Protocol: (§3) Specificity for EGFR and cMET species paralogs and closely related family members was determined by ELISA. Briefly, antigen solutions were prepared in PBS at 1 μg/mL and 50 microliters was coated onto half area ELISA assay plates. Plates were washed and blocked with 1% BSA in PBS containing 0.005% Tween-20 (PBS-T) for one hour at room temperature. […] Wells were incubated with 50 microliters of the indicated primary antibodies diluted in PBS-T in a 1:3 dilution series, starting at 10 μg/mL and ending at 0.002 ug/mL, except for the HER4 binding mAb control, MAB1131, for which the series started at 1 μg/mL. The wells were washed 4 times in PBS-T, then 50 μl of goat anti-human Fab HRP-labeled secondary antibody, diluted 1:5000 in PBS-T, was added to each well and incubated for one hour at room temperature. […] 50 microliters of TMB stop solution was added to all wells and the absorbance was read at 450 nm on a SpectraMax M5 microplate reader. Data were analyzed in the SoftMax Pro 5 software and plotted using GraphPad Prism 7 graphing software.
(§4) To determine the species cross reactivity, ELISA assays were carried out as described above.

HER2 = molecular target: T7, HER2 (Homo sapiens (Human), UniProt P04626 23-652); experiment: as above
T7 construct: also called EGFR HER family protein HER2

HER4 = molecular target: T8, HER4 (Homo sapiens (Human), UniProt Q15303 26-651); experiment: as above
T8 construct: also called EGFR HER family protein HER4
T8 sequence: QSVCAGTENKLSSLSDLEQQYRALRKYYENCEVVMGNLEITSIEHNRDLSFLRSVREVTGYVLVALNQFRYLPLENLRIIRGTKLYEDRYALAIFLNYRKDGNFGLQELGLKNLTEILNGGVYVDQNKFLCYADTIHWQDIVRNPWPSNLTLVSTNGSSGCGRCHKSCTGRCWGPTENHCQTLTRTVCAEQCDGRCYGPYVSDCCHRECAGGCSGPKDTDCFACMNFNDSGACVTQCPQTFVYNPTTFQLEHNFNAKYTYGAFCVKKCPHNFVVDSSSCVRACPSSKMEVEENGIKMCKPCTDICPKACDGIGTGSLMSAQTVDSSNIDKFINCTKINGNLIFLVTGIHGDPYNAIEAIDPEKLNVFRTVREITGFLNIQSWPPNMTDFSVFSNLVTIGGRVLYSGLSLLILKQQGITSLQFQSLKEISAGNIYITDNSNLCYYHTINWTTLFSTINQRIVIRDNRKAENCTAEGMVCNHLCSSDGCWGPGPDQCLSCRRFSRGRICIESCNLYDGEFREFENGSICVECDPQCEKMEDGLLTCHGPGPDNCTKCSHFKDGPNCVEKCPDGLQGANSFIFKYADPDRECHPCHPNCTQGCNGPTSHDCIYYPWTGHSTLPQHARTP

[6] = molecular target: EGFR on human tumour cells (A431, NCI-H1975, HCC827) (human) (UniProt P00533); experiment: cell-based or functional assay
[7] = molecular target: T3, Cynomolgus monkey cMET (recombinant, …); experiment: ELISA, antigen coated at 1 ug/mL, anti-human Fab-HRP detection, A450
Protocol: as §3, §4

[8] = molecular target: T4, Human cMET (recombinant, soluble …); experiment: as above
Protocol: as §3, §4

[9] = molecular target: c-MET on human tumour cells (NCI-H1975, HCC827) (human) (UniProt P08581); experiment: cell-based or functional assay
Chain of c-MET on human tumour cells (NCI-H1975, HCC827) (human) (P08581 25-1390): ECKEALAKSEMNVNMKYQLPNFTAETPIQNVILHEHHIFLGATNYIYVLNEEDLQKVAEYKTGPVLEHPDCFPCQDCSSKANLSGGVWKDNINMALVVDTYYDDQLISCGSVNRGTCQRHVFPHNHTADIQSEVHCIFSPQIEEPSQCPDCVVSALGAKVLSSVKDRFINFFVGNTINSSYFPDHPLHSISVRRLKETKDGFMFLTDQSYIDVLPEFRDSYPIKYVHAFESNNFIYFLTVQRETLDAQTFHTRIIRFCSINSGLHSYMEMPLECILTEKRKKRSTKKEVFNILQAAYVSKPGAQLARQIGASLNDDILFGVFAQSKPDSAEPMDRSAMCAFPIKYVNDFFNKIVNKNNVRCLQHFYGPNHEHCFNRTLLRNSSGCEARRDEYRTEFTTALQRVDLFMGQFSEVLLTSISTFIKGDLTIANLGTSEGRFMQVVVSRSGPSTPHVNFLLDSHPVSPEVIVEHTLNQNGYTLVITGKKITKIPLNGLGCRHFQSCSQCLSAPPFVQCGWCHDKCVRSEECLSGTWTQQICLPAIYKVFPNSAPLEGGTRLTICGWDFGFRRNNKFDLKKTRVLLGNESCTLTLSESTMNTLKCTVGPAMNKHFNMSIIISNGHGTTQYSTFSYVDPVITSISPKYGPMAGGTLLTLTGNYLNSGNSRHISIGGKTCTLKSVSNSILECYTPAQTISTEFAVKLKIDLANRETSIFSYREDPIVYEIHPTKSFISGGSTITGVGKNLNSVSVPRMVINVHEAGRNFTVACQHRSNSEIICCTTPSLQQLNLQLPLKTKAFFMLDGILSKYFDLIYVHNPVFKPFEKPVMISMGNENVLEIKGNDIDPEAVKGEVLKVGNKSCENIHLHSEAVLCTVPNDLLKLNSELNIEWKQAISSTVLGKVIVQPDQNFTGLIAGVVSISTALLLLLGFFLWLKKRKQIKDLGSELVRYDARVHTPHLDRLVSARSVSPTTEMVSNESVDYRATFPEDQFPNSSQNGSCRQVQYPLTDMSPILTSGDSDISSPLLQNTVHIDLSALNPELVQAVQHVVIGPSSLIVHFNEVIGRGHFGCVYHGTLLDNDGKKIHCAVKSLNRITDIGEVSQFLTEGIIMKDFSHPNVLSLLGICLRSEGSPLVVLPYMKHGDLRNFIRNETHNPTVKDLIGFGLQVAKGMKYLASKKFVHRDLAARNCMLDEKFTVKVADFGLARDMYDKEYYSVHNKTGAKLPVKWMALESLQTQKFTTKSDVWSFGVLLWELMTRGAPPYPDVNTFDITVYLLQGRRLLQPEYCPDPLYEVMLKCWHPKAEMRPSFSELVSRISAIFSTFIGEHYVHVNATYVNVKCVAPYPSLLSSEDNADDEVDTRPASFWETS

B1: QD6/B09-57 DuetMab (bispecific antibody, human IgG1, kappa, lambda)
heavy 1: QVQLVQSGAEVKKPGSSVKVSCKASGGTFSDNDFSWVRQAPGQGLEWMGAIVAVVRTETYAQKFQDRVKITADISTRTTYMELSSLRSEDTAVYYCARRLMSAISGPGAPLLMWGQGTLVTVSSASTKGPSVFPLAPSSKSTSGGTAALGCLVKDYFPEPVTVSWNSGALTSGVHTFPAVLQSSGLYSLSSVVTVPSSSLGTQTYICNVNHKPSNTKVDKRVEPKSCDKTHTCPPCPAPELLGGPSCVFLFPPKPKDTLMISRTPEVTCVVVDVSHEDPEVKFNWYVDGVEVHNAKTKPREEQYNSTYRVVSVLTVLHQDWLNGKEYKCKVSNKALPAPIEKTISKAKGQPREPQVCTLPPSREEMTKNQVSLSCAVKGFYPSDIAVEWESNGQPENNYKTTPPVLDSDGSFFLVSKLTVDKSRWQQGNVFSCSVMHEALHNHYTQKSLSLSPGK
light 1: QSALTQPRSVSGSPGQSVTISCTGTSSDVGGYNYVSWYQQHPGKAPKLMIYDVSERPSGVPDRFSGSKSGNTASLTISGLQAEDEADYYCFSYTSSDTLEIFGGGTKLTVLGQPKAAPSVTLFPPSSEELQANKATLVCLISDFYPGAVTVAWKADSSPVKAGVETTTPSKQSNNKYAASSYLSLTPEQWKSHRSYSCQVTHEGSTVEKTVAPTECS
heavy 2: QVQLVQSGAEVKKPGASVKVSCKASGYTFTDYYIHWVRQATGQGLEWMGWMNPNSGNTGYAQKFQGRVTMTRDTSISTAYMELSSLRSEDTAVYYCARGQGYTHSWGQGTMVTVSSASTKGPSVCPLAPSSKSTSGGTAALGCLVKDYFPEPVTVSWNSGALTSGVHTFPAVLQSSGLYSLSSVVTVPSSSLGTQTYICNVNHKPSNTKVDKRVEPKSVDKTHTCPPCPAPELLGGPSCVFLFPPKPKDTLMISRTPEVTCVVVDVSHEDPEVKFNWYVDGVEVHNAKTKPREEQYNSTYRVVSVLTVLHQDWLNGKEYKCKVSNKALPAPIEKTISKAKGQPREPQVYTLPPCREEMTKNQVSLWCLVKGFYPSDIAVEWESNGQPENNYKTTPPVLDSDGSFFLYSKLTVDKSRWQQGNVFSCSVMHEALHNHYTQKSLSLSPG
light 2: DIQMTQSPSTLSASVGDRVTITCRASEGIYHWLAWYQQKPGKAPKLLIYKASSLASGVPSRFSGSGSGTEFTLTISSLQPDDFATYYCQQYSNYPPTFGGGTKLEIKRTVAAPSVFIFPPCDEQLKSGTASVVCLLNNFYPREAKVQWKVDNALQSGNSQESVTEQDSKDSTYSLSSTLTLSKADYEKHKVYACEVTHQGLSSPVTKSFNRGEV
notes: Monovalent bispecific IgG1 DuetMab with cysteine insertion after Ser239; Labelled with AlexaFluor-647 in the microscopy experiments; also called QD06/B09-57; bispecific EGFR/cMET DuetMAb
Kd [1]: 6.2 nM
koff [1]: 0.00078 s⁻¹
kon [1]: 126000 M⁻¹ s⁻¹
Kd [2]: 5.9 nM
koff [2]: 0.000374 s⁻¹
kon [2]: 63500 M⁻¹ s⁻¹
Kd [3]: 2.2 nM
koff [3]: 0.00206 s⁻¹
kon [3]: 958000 M⁻¹ s⁻¹
Kd [4]: 1.6 nM
koff [4]: 0.000696 s⁻¹
kon [4]: 425000 M⁻¹ s⁻¹
Kd [5]: 2.8 nM
koff [5]: 0.000585 s⁻¹
kon [5]: 210000 M⁻¹ s⁻¹
binding result (HER3): no binding (tested: 10 ug/ml)
binding result (Mouse cMET (recombinant)): no binding (tested: 10 ug/ml)
binding result (HER2): no binding (tested: 10 ug/ml)
binding result (HER4): no binding (tested: 10 ug/ml)

B2: RAA22/R347-AZ1508 (bispecific antibody, part only; not given: R347 control arm and constant regions, V domains shown, part only)
VH: QVQLVQSGAEVKKPGSSVKVSCKASGGTFSDNDFSWVRQAPGQGLEWMGAIVAVFRTETYAQKFQDRVKITADISTRTTYMELSSLRSEDTAVYYCARRLMSAISGPGAPLLMWGQGTLVTVSS
VL: QSALTQPRSVSGSPGQSVTISCTGTSSDVGGYNYVSWYQQHPGKAPKLMIYDVSKRPSGVPDRFSGSKSGNTASLTISGLQAEDEADYYCSSYTSSDTLEIFGGGTKLTVL
IC50, CellTiter-Glo cytotoxicity on NCI H1975 cells (FIG. 11) [6]: 20.5 nM
fold difference in IC50 against the bispecific EGFR-cMET ADC [6]: 65 fold

B3: RAA22 IgG (antibody, V domains shown)
VH: B2 VH
VL: B2 VL
notes: Bivalent parental IgG; Only the variable domains are tied to the parental IgG; also called anti-EGFR antibody clone RAA22
Kd [1]: 488 nM
koff [1]: 0.019 s⁻¹
kon [1]: 40300 M⁻¹ s⁻¹
Kd [2]: 46.6 nM
koff [2]: 0.00206 s⁻¹
kon [2]: 44100 M⁻¹ s⁻¹
Kd [5]: 170 nM
koff [5]: 0.00601 s⁻¹
kon [5]: 35400 M⁻¹ s⁻¹
binding result (HER3): no binding (tested: 10 ug/ml)
binding result (Mouse cMET (recombinant)): no binding (tested: 10 ug/ml)
binding result [7]: no binding (tested: 10 ug/ml)
binding result [8]: no binding (tested: 10 ug/ml)
binding result (HER2): no binding (tested: 10 ug/ml)
binding result (HER4): no binding (tested: 10 ug/ml)

B4: QD6 IgG (antibody, V domains shown)
VH: B2 VH with F55V
VL: B2 VL with K55E, S91F
notes: Only variable domains are tied to the parental IgG; also called QD06; anti-EGFR antibody clone QD6
Kd [1]: 4.4 nM
koff [1]: 0.000735 s⁻¹
kon [1]: 167000 M⁻¹ s⁻¹
Kd [2]: 2 nM
koff [2]: 0.000292 s⁻¹
kon [2]: 148000 M⁻¹ s⁻¹
Kd [5]: 2.5 nM
koff [5]: 0.000288 s⁻¹
kon [5]: 114000 M⁻¹ s⁻¹
binding result (HER3): no binding (tested: 10 ug/ml)
binding result (Mouse cMET (recombinant)): no binding (tested: 10 ug/ml)
binding result [7]: no binding (tested: 10 ug/ml)
binding result [8]: no binding (tested: 10 ug/ml)
binding result (HER2): no binding (tested: 10 ug/ml)
binding result (HER4): no binding (tested: 10 ug/ml)

B5: B09/R347 (bispecific antibody, part only; not given: non-binding arm and constant regions, V domains shown, not shown: another chain or arm of the molecule; a dimerising Fc or GST; small tags and cut ends)
VH: QVQLVQSGAEVKKPGASVKVSCKASGYTFTDYYIHWVRQATGQGLEWMGWMNPNSGNTGYAQKFQGRVTMTRDTSISTAYMELSSLRSEDTAVYYCARGQGYTHSWGQGTMVTVSS
VL: DIQMTQSPSTLSASVGDRVTITCRASEGIYHWLAWYQQKPGKAPKLLIYKASSLASGVPSRFSGSGSGTEFTLTISSLQPDDFATYYCQQYSNYPPTFGGGTKLEIK
modifications: AlexaFluor-647 or pHAb dye label on amines; positions not defined
cytoplasmic intensity of AF647-labelled antibody in H1975 cells, fold higher for RAA22/B09 DuetMab than for B09-IgG (FIG. 7B) [9]: 4.7 fold

From patent publication US20240360226A1 (AstraZeneca / MedImmune, published 2024)
